According to the RNAGym collection of RNA variant scans (doi:10.1073/pnas.2313332121):
Variants at the floor of the assay were thinned out.

B1: TPR 5TU (parent)
chain: GGAUCUUCUCGAUCUAACAAAAAAGACAAAUCUGCCACAAAGCUUGAGAGCAUCUUCGGAUGCAGAGGCGGCAGCCUUCGGUGGCGCGAUAGCGCCAACGUUCUCAACUAUGACACGCAAAACGCGUGCUCCGUUGAAUGGAGUUUAUCAUG

Variants of: B1
Assay: polymerase ribozyme fitness, log enrichment relative to wild type (log ratio); higher = more active; in vitro selection for triplet polymerase activity
Summary of the method: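 To select mutant libraries of each subunit of a heterodimeric triplet polymerase ribozyme, built by PCR and transcribed, each was annealed with a biotinylated primer, partner subunit and triplets, then incubated frozen at −7 °C. Extended constructs were gel-excised, captured on streptavidin beads and amplified by RT-PCR, in one round carried out in triplicate. Illumina sequencing of input and output libraries kept genotypes with ≥10 input reads and ≥1 read per output. Fitness is the base-2 logarithm of genotype enrichment relative to wild-type enrichment, from inverse-variance-weighted replicate averages.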
With U6G C10G C14A A49C C85A C93U C116U the “polymerase ribozyme fitness (log ratio)” value was no more than -4.2. In the case of U7G C85U, the “polymerase ribozyme fitness (log ratio)” value is reported as -2.79. With U7G C85A the “polymerase ribozyme fitness (log ratio)” value was -3.43. In the case of U6G C96U, the “polymerase ribozyme fitness (log ratio)” value is reported as -0.759. For U7A C8U A73G G81A G83A C96A A119U G124C, the “polymerase ribozyme fitness (log ratio)” value was no more than -4.2. For U6G A22U A40G C57A G94A, the “polymerase ribozyme fitness (log ratio)” value was -2.43. In the case of U6G A40U A66G U82A C96A G100U, the “polymerase ribozyme fitness (log ratio)” value is reported as no more than -4.2. For U7A C8G A89C C95G, the “polymerase ribozyme fitness (log ratio)” value was no more than -4.2. With U7A A26G U31C G50U A73C G86A U104G the “polymerase ribozyme fitness (log ratio)” value was no more than -4.2. With U6G A22G U139A the “polymerase ribozyme fitness (log ratio)” value was no more than -4.2. In the case of U6G U13G U44A A60G C69G C93A C118A, the “polymerase ribozyme fitness (log ratio)” value is reported as no more than -4.2. For C8A A17G U78G G94A G133A U134A, the “polymerase ribozyme fitness (log ratio)” value was no more than -4.2. With U7C C8A C32U A91U A121G U134C the “polymerase ribozyme fitness (log ratio)” value was no more than -4.2. With U6C U82A C99U G136U the “polymerase ribozyme fitness (log ratio)” value was -3.43. For U6G C10A A16G A20C U53A C54G A64U C85U G86A A113U U145C, the “polymerase ribozyme fitness (log ratio)” value was no more than -4.2. For U7G A12G C18G C32U G94C A115U, the “polymerase ribozyme fitness (log ratio)” value was no more than -4.2. For U7C C85U U145A, the “polymerase ribozyme fitness (log ratio)” value was -2.42. In the case of U7C A16U A49G G92C, the “polymerase ribozyme fitness (log ratio)” value is reported as no more than -4.2. With U7G U15A G58U G70C A91G the “polymerase ribozyme fitness (log ratio)” value was no more than -4.2. In the case of U7A G71A C96G, the “polymerase ribozyme fitness (log ratio)” value is reported as no more than -4.2. With U6G C85A C87G A98U A106C U148A the “polymerase ribozyme fitness (log ratio)” value was no more than -4.2. For U6G G50U C85U C116U, the “polymerase ribozyme fitness (log ratio)” value was 0.202. In the case of U6G C10U A12U U33G A37U C95A U135A G141U U144C, the “polymerase ribozyme fitness (log ratio)” value is reported as no more than -4.2. With U6G A29U A73G U77C C95U A107U the “polymerase ribozyme fitness (log ratio)” value was no more than -4.2. With U6G C63U A89C the “polymerase ribozyme fitness (log ratio)” value was -0.961. For U6G U13G C57G, the “polymerase ribozyme fitness (log ratio)” value was -2.26. For U6C U33G U56C G81C C95U, the “polymerase ribozyme fitness (log ratio)” value was no more than -4.2. With U6G A12U A23G C38A G83U U90G C95A the “polymerase ribozyme fitness (log ratio)” value was no more than -4.2. For U6G C10G A21G G71A C76U C85A, the “polymerase ribozyme fitness (log ratio)” value was no more than -4.2. For U6G G92A, the “polymerase ribozyme fitness (log ratio)” value was -2.59. In the case of U7G A23G, the “polymerase ribozyme fitness (log ratio)” value is reported as no more than -4.2. In the case of U6G A16U G58A G141U, the “polymerase ribozyme fitness (log ratio)” value is reported as -1.34. With U7A C54A C72A the “polymerase ribozyme fitness (log ratio)” value was no more than -4.2. In the case of U6G U31G G84U, the “polymerase ribozyme fitness (log ratio)” value is reported as -0.345. For U7C A12C A24C C96U A120C, the “polymerase ribozyme fitness (log ratio)” value was no more than -4.2. With U6G A29C A73U G86U the “polymerase ribozyme fitness (log ratio)” value was no more than -4.2. In the case of U7A A20G C35U A47G G83A C96A, the “polymerase ribozyme fitness (log ratio)” value is reported as no more than -4.2. For U6G G48U G58A C76G U82C C93U A122C A138G A142G, the “polymerase ribozyme fitness (log ratio)” value was no more than -4.2. In the case of U6G A21U A26G A40C A66G A107U U135A G141A, the “polymerase ribozyme fitness (log ratio)” value is reported as no more than -4.2. For U7A A22C A24U C54G G83A, the “polymerase ribozyme fitness (log ratio)” value was no more than -4.2. In the case of C8A A19G G62A G67C C93A A97U G112U A142G U148A, the “polymerase ribozyme fitness (log ratio)” value is reported as no more than -4.2. For U7G C69G C93A, the “polymerase ribozyme fitness (log ratio)” value was no more than -4.2. In the case of U7G U15A G59C G124C G136A, the “polymerase ribozyme fitness (log ratio)” value is reported as -3.25. In the case of U7A C85U, the “polymerase ribozyme fitness (log ratio)” value is reported as -2.9. For U6G A19U G50C G88U C99G, the “polymerase ribozyme fitness (log ratio)” value was no more than -4.2. For U7G G50C C87G C125U G133A G140A A142U, the “polymerase ribozyme fitness (log ratio)” value was no more than -4.2. For U7A C14G U45A G50A C57A G71C A110U G112U C125G C132U, the “polymerase ribozyme fitness (log ratio)” value was no more than -4.2. With U7C C27U C38U C54G A64G C75U C85A C96U C105G C114U the “polymerase ribozyme fitness (log ratio)” value was no more than -4.2. For U6G C57G C85U A98U, the “polymerase ribozyme fitness (log ratio)” value was -1.17. For C8A A12G A17G U56A A97U A147C, the “polymerase ribozyme fitness (log ratio)” value was no more than -4.2. For U6C U13G C43G C76U U90A U151G, the “polymerase ribozyme fitness (log ratio)” value was no more than -4.2. In the case of U6G G59A G92A C95A C105U, the “polymerase ribozyme fitness (log ratio)” value is reported as -4.19. In the case of U7A G94C U111C U135A A138U, the “polymerase ribozyme fitness (log ratio)” value is reported as -3.87. For U6C U9A A30U A49U C85U U146C, the “polymerase ribozyme fitness (log ratio)” value was no more than -4.2. For U7A G94A, the “polymerase ribozyme fitness (log ratio)” value was -3.07. With U7C G86U the “polymerase ribozyme fitness (log ratio)” value was -3.7. With U7G A21C C32A A49C U53C C69U A142C the “polymerase ribozyme fitness (log ratio)” value was no more than -4.2. With U7G A64G C87A C105A U144G the “polymerase ribozyme fitness (log ratio)” value was no more than -4.2. With U6G A73C C99U the “polymerase ribozyme fitness (log ratio)” value was no more than -4.2. For U7G A19C A30U G71C G84A C96G C118G, the “polymerase ribozyme fitness (log ratio)” value was no more than -4.2. With U7A U55A the “polymerase ribozyme fitness (log ratio)” value was -3.25. With U7A C14G C32U A106G U148C the “polymerase ribozyme fitness (log ratio)” value was no more than -4.2. In the case of U7C U9G C54U A107C U127A, the “polymerase ribozyme fitness (log ratio)” value is reported as no more than -4.2. For U7G C35A A40G U77C A150U, the “polymerase ribozyme fitness (log ratio)” value was no more than -4.2. For C8A A17C A26C A40C C87U U144G, the “polymerase ribozyme fitness (log ratio)” value was no more than -4.2. In the case of U7C C18U U31A G81A G84U, the “polymerase ribozyme fitness (log ratio)” value is reported as -3.99. For U6G A19G A30U A119G, the “polymerase ribozyme fitness (log ratio)” value was no more than -4.2. For U6G A121U, the “polymerase ribozyme fitness (log ratio)” value was -0.506. With U6G U44G A47U U53C A64C C103A the “polymerase ribozyme fitness (log ratio)” value was no more than -4.2. For U7C C18G G86A U148A, the “polymerase ribozyme fitness (log ratio)” value was -4.2. In the case of U7A A26G C75G C93A, the “polymerase ribozyme fitness (log ratio)” value is reported as -4.13. For U7C A20U C96A C103U U109C G152U, the “polymerase ribozyme fitness (log ratio)” value was -3.42. With U7A A19C G92C C105A A115U C116U A137U the “polymerase ribozyme fitness (log ratio)” value was no more than -4.2. In the case of U7G U13A A17U A20C G50A A122C G141U U151G, the “polymerase ribozyme fitness (log ratio)” value is reported as no more than -4.2. For U6G U134C, the “polymerase ribozyme fitness (log ratio)” value was -0.128. For U7A U9A A98G A121G, the “polymerase ribozyme fitness (log ratio)” value was no more than -4.2. For U7C C27U A49C A52G C79A C87G C93G C96A A97U C99U C108U A120U, the “polymerase ribozyme fitness (log ratio)” value was -4.18. In the case of U7C C18G C43G G48A G58C C63U C76G, the “polymerase ribozyme fitness (log ratio)” value is reported as no more than -4.2. For U7A A73G C87G C131A, the “polymerase ribozyme fitness (log ratio)” value was no more than -4.2. In the case of U7G G50U, the “polymerase ribozyme fitness (log ratio)” value is reported as -3.02. With U6C U61A G68C G84A G88U A121G G124A the “polymerase ribozyme fitness (log ratio)” value was no more than -4.2. With U7C G46C U56A U77C G81A G86U G100A G133U the “polymerase ribozyme fitness (log ratio)” value was no more than -4.2. In the case of U6G C35U G58C C96U A113C U135C A147U, the “polymerase ribozyme fitness (log ratio)” value is reported as no more than -4.2. In the case of C8A A17G U55A C93A G126U G140A, the “polymerase ribozyme fitness (log ratio)” value is reported as no more than -4.2.
